{"source": "patent US20030119727A1", "about": "(Genentech, published 2003)"}
{"molecular_target": "T1, recombinant human Factor VIIa (human), P08709", "T1 chain 1": "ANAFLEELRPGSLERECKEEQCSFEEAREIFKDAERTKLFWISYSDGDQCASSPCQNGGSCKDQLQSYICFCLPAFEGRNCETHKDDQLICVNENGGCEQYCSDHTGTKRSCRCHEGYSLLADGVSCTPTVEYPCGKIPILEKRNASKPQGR", "T1 chain 2": "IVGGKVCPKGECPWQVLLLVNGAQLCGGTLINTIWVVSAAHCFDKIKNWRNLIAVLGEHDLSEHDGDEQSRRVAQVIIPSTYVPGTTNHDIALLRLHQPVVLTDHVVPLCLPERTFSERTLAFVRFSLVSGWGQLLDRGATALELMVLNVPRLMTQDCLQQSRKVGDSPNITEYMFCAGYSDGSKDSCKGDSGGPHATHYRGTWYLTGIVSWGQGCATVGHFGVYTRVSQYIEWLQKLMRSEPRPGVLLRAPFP", "experiment": "competition ELISA", "settings": "modification not given", "units": {"IC50": "nM"}}
{"binder": "ALCDDPRVDRWACQFVEG", "note": "[TF145]", "IC50": "> 50000"}
{"binder": "ALCDDPRVDAWYCQFVEG", "note": "[TF112]", "IC50": 396}
{"binder": "ALCDDPRVNRWYCQFVEG", "note": "[TF97]", "IC50": 1200}
{"binder": "CDDPRVDRWYCQFVEG", "note": "[TF156]", "IC50": 90300}
{"binder": "ALCDNPRVDRWYCQFVEG", "note": "[TF106]", "IC50": 2}
{"binder": "ALCDRPRVDRWYCQFVEG", "note": "[TF95]", "IC50": 123}
{"binder": "ALCDEPRVDRWYCQFVEG", "note": "[TF120]", "IC50": 109}
{"binder": "LCDDPRIDRWYCMF", "note": "[TF61]", "IC50": 250000}
{"binder": "ALCDDPAVDRWYCQFVEG", "note": "[TF109]", "IC50": 110}
{"binder": "ALADDPRVDRWYAQFVEG", "note": "[TF119]", "IC50": "> 100000"}
{"binder": "ALCDDPRVQRWYCQFVEG", "note": "[TF161]", "IC50": 8620}
{"binder": "ALCDDPEVDRWYCQFVEG", "note": "[TF96]", "IC50": 257}
{"binder": "ALCDDPRVERWYCQFVEG", "note": "[TF111]", "IC50": 147}
{"binder": "VGALCDDPRVDRWYCQFVE", "note": "[TF75]", "IC50": 6}
{"binder": "VGALCDDPRVDRWYCQFVEG", "note": "[TF74]", "IC50": 5}
{"binder": "AKCDDPRVDRWYCQFVEG", "note": "[TF320]", "IC50": 42000}
{"binder": "LCDDPRVDRWYCQFVEG", "note": "[TF77]", "IC50": 248}
{"binder": "AVCDDPRVDRWYCQFVEG", "note": "[TF317]", "IC50": 988}
{"binder": "ALCDDPRIDRWYCQFVEG", "note": "[TF121]", "IC50": 3}
{"binder": "AACDDPRVDRWYCQFVEG", "note": "[TF155]", "IC50": 9780}
{"binder": "ALCDDPRVARWYCQFVEG", "note": "[TF110]", "IC50": 330}
{"binder": "ALCADPRVDRWYCQFVEG", "note": "[TF107]", "IC50": 10}
{"binder": "AMCDDPRVDRWYCQFVEG", "note": "[TF319]", "IC50": 24000}
{"binder": "ALCDDPRADRWYCQFVEG", "note": "[TF129]", "IC50": 716}
{"binder": "ALCDAPRVDRWYCQFVEG", "note": "[TF108]", "IC50": 104}
{"binder": "ALCRDPRVDRWYCQFVEG", "note": "[TF127]", "IC50": 28}
{"binder": "ALCDDPRVDRFYCQFVEG", "note": "[TF131]", "IC50": 4960}
{"binder": "ALCDDPRVDRWYCQLVEG", "note": "[TF189]", "IC50": 438}
{"binder": "ALCDDPRVDKWYCQFVEG", "note": "[TF130]", "IC50": 93}
{"binder": "ALCDDPRVDRWYCQF", "note": "[TF90]", "IC50": 168}
{"binder": "ALCDDPRVSRWYCQFVEG", "note": "[TF162]", "IC50": 359}
{"binder": "ALCDDPRVDRWYCQFV", "note": "[TF89]", "IC50": 298}
{"binder": "ALCDDPRVDPWYCQFVEG", "note": "[TF113]", "IC50": 10500}
{"binder": "ALCDDPRVDRWYCAFVEG", "note": "[TF179]", "IC50": 32}
{"binder": "ALCDDPRVDQWYCQFVEG", "note": "[TF98]", "IC50": 2560}
{"binder": "ALCDDPRVDRWFCQFVEG", "note": "[TF144]", "IC50": 485}
{"binder": "ALCDDPRVDRHYCQFVEG", "note": "[TF152]", "IC50": "> 100000"}
{"binder": "ALCDDPRLDRWYCQFVEG", "note": "[TF128]", "IC50": 141}
{"binder": "ALCDDPRVDRWYC", "note": "[TF180]", "IC50": 100000}
{"binder": "ALCDDPRVDRAYCQFVEG", "note": "[TF114]", "IC50": "> 50000"}
{"binder": "LCDDPRIDRWYCQF", "note": "[TF63]", "IC50": 100000}
{"binder": "ALCDDPRVDRWYCQAVEG", "note": "[TF115]", "IC50": 20000}
{"binder": "ALCDDPRVDRWYCYFVEG", "note": "[TF132]", "IC50": 85}
{"binder": "ALCDDARVDRWYCQFVEG", "note": "[TF178]", "IC50": 20}
{"binder": "ALCDDPRVDRWYCQYVEG", "note": "[TF146]", "IC50": 698}
{"binder": "ATCDDPRVDRWYCQFVEG", "note": "[TF318]", "IC50": 75000}
{"binder": "EGTLCDDPRIDRWYCMFSGV", "note": "[TF58]", "IC50": 2300}
{"binder": "ALCDDPRVDRWYCQQVEG", "note": "[TF191]", "IC50": 20300}
